Laboratory results reported in the supplement of paper PMC9112550, “Optimization of the antimicrobial peptide Bac7 by deep mutational scanning” (BMC Biology, 2022).

test system: Escherichia coli TOP10; experiment: shrunken log2 fold change of peptide-encoding DNA abundance (4.5 h post-induction vs induction); higher = less antimicrobial activity (less host growth inhibition); settings: time post-induction: 4.5 h; library: site-saturation at positions 5, 18, 19, 20
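Further: peptides expressed intracellularly from a pBAD plasmid library in pooled LB shake-flask culture, induced with 0.3% L-arabinose, DNA abundance read by NGS, three biological replicates, DESeq2 with apeglm shrinkage.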

Row | Sequence | shrunken log2 fold change
1 | RRIRFRPPRLPRPRPRPDINPRP | -0.302
2 | RRIRPRPPRLPRPRPRPTELPRP | -0.126
3 | RRIRRRPPRLPRPRPRPPGDPRP | 1.06
4 | RRIRARPPRLPRPRPRPNYGPRP | -0.24
5 | RRIRYRPPRLPRPRPRPMMLPRP | -0.00141
6 | RRIRRRPPRLPRPRPRPWVNPRP | -0.0334
7 | RRIRMRPPRLPRPRPRPKHFPRP | 0.176
8 | RRIRERPPRLPRPRPRPFKTPRP | -0.0273
9 | RRIRFRPPRLPRPRPRPLRAPRP | 0.821
10 | RRIRHRPPRLPRPRPRPTHWPRP | 0.706
11 | RRIRNRPPRLPRPRPRPPDHPRP | 0.0887
12 | RRIRKRPPRLPRPRPRPMKHPRP | -0.156
13 | RRIRNRPPRLPRPRPRPILFPRP | -0.396
14 | RRIRLRPPRLPRPRPRPDDKPRP | -0.525
15 | RRIRQRPPRLPRPRPRPKLGPRP | 0.00556
16 | RRIRRRPPRLPRPRPRPNFVPRP | -0.142
17 | RRIRARPPRLPRPRPRPPWPPRP | 0.738
18 | RRIRLRPPRLPRPRPRPANKPRP | -0.0711
19 | RRIRLRPPRLPRPRPRPNALPRP | -0.0646
20 | RRIRDRPPRLPRPRPRPGILPRP | -0.197
21 | RRIRTRPPRLPRPRPRPREVPRP | 0.442
22 | RRIRTRPPRLPRPRPRPAGTPRP | 0.0902
23 | RRIRPRPPRLPRPRPRPNTIPRP | -0.553
24 | RRIRERPPRLPRPRPRPTTHPRP | -0.294
25 | RRIRARPPRLPRPRPRPAGMPRP | 0.432

Row | Sequence | shrunken log2 fold change
26 | RRIRERPPRLPRPRPRPKNWPRP | 1.59
27 | RRIRERPPRLPRPRPRPGYYPRP | -0.0487
28 | RRIRVRPPRLPRPRPRPAEIPRP | -0.0984
29 | RRIRLRPPRLPRPRPRPPVQPRP | 0.553
30 | RRIRPRPPRLPRPRPRPIVMPRP | -0.445
31 | RRIRMRPPRLPRPRPRPTKLPRP | 0.287
32 | RRIRSRPPRLPRPRPRPKVAPRP | 0.509
33 | RRIRRRPPRLPRPRPRPGGRPRP | 0.295
34 | RRIRPRPPRLPRPRPRPADFPRP | -0.00303
35 | RRIRRRPPRLPRPRPRPAQKPRP | 0.547
36 | RRIRIRPPRLPRPRPRPIIEPRP | -0.0807
37 | RRIRLRPPRLPRPRPRPYSGPRP | -0.103
38 | RRIRVRPPRLPRPRPRPWCGPRP | 0.0506
39 | RRIRTRPPRLPRPRPRPEELPRP | 0.0343
40 | RRIRKRPPRLPRPRPRPMPMPRP | 0.00883
41 | RRIRIRPPRLPRPRPRPLGPPRP | 0.0624
42 | RRIRNRPPRLPRPRPRPVVWPRP | 0.55
43 | RRIRVRPPRLPRPRPRPQMGPRP | 0.00696
44 | RRIRDRPPRLPRPRPRPEMCPRP | 0.0536
45 | RRIRERPPRLPRPRPRPFCWPRP | 0.0996
46 | RRIRPRPPRLPRPRPRPVAEPRP | 0.394
47 | RRIRPRPPRLPRPRPRPIASPRP | -0.0044
48 | RRIRARPPRLPRPRPRPKDPPRP | 0.211
49 | RRIRARPPRLPRPRPRPDKHPRP | -0.0889
50 | RRIRQRPPRLPRPRPRPMGKPRP | -0.167

Row | Sequence | shrunken log2 fold change
51 | RRIRGRPPRLPRPRPRPWAMPRP | 0.483
52 | RRIRPRPPRLPRPRPRPNSYPRP | -0.464
53 | RRIRRRPPRLPRPRPRPMSNPRP | -0.0453
54 | RRIRMRPPRLPRPRPRPGADPRP | 2.39
55 | RRIRKRPPRLPRPRPRPGNKPRP | -0.0985
56 | RRIRIRPPRLPRPRPRPNPWPRP | -0.119
57 | RRIRMRPPRLPRPRPRPQLIPRP | -0.0368
58 | RRIRTRPPRLPRPRPRPDSGPRP | -0.0764
59 | RRIRVRPPRLPRPRPRPYIPPRP | -1
60 | RRIRSRPPRLPRPRPRPDRIPRP | -0.249
61 | RRIRNRPPRLPRPRPRPDSGPRP | -0.166
62 | RRIRERPPRLPRPRPRPACSPRP | 0.115
63 | RRIRYRPPRLPRPRPRPSWSPRP | -0.179
64 | RRIRFRPPRLPRPRPRPTIEPRP | -0.037
65 | RRIRNRPPRLPRPRPRPWFFPRP | -0.0137
66 | RRIRSRPPRLPRPRPRPNYYPRP | -0.822
67 | RRIRCRPPRLPRPRPRPCYNPRP | -0.837
68 | RRIRERPPRLPRPRPRPSPAPRP | -0.0943
69 | RRIRRRPPRLPRPRPRPFKHPRP | -0.212
70 | RRIRHRPPRLPRPRPRPIKNPRP | -0.563
71 | RRIRCRPPRLPRPRPRPFEMPRP | -0.36
72 | RRIRPRPPRLPRPRPRPYQHPRP | -0.592
73 | RRIRKRPPRLPRPRPRPNLGPRP | 0.207
74 | RRIRLRPPRLPRPRPRPVYQPRP | -0.0597
75 | RRIRNRPPRLPRPRPRPSVRPRP | -0.00578

Row | Sequence | shrunken log2 fold change
76 | RRIRSRPPRLPRPRPRPGHGPRP | -0.254
77 | RRIRRRPPRLPRPRPRPSHRPRP | -0.00626
78 | RRIRSRPPRLPRPRPRPSPWPRP | -0.0643
79 | RRIRWRPPRLPRPRPRPMDHPRP | -0.128
80 | RRIRSRPPRLPRPRPRPRIWPRP | 0.183
81 | RRIRLRPPRLPRPRPRPWGQPRP | -0.0472
82 | RRIRLRPPRLPRPRPRPAHPPRP | 0.522
83 | RRIRCRPPRLPRPRPRPKWPPRP | -0.0352
84 | RRIRDRPPRLPRPRPRPLGCPRP | 0.206
85 | RRIRLRPPRLPRPRPRPNQCPRP | -0.206
86 | RRIRNRPPRLPRPRPRPKWKPRP | 0.0263
87 | RRIRHRPPRLPRPRPRPDFFPRP | -0.26
88 | RRIRIRPPRLPRPRPRPKIFPRP | 0.27
89 | RRIRGRPPRLPRPRPRPVTWPRP | 0.425
90 | RRIRLRPPRLPRPRPRPFWCPRP | -0.0123
91 | RRIRNRPPRLPRPRPRPCSCPRP | -0.0018
92 | RRIRVRPPRLPRPRPRPWNTPRP | -0.878
93 | RRIRLRPPRLPRPRPRPNATPRP | 0.0161
94 | RRIRIRPPRLPRPRPRPYYTPRP | -0.389
95 | RRIRKRPPRLPRPRPRPPGEPRP | 0.617
96 | RRIRIRPPRLPRPRPRPIYIPRP | -0.159
97 | RRIRARPPRLPRPRPRPMPGPRP | -0.0941
98 | RRIRTRPPRLPRPRPRPLDNPRP | -0.396
99 | RRIRERPPRLPRPRPRPCVHPRP | -0.0795
100 | RRIRWRPPRLPRPRPRPYHLPRP | -0.146

Row | Sequence | shrunken log2 fold change
101 | RRIRDRPPRLPRPRPRPAVKPRP | 0.368
102 | RRIRERPPRLPRPRPRPQKEPRP | -0.0239
103 | RRIRIRPPRLPRPRPRPYSCPRP | -0.0992
104 | RRIRPRPPRLPRPRPRPIGHPRP | -0.0228
105 | RRIRLRPPRLPRPRPRPMWSPRP | -0.0258
106 | RRIRARPPRLPRPRPRPDFQPRP | 0.149
107 | RRIRMRPPRLPRPRPRPNTNPRP | 0.128
108 | RRIRERPPRLPRPRPRPGQHPRP | -0.242
109 | RRIRQRPPRLPRPRPRPNIIPRP | -0.247
110 | RRIRVRPPRLPRPRPRPWWVPRP | 0.00127
111 | RRIRVRPPRLPRPRPRPDMQPRP | -0.081
112 | RRIRQRPPRLPRPRPRPKKDPRP | -0.184
113 | RRIRKRPPRLPRPRPRPELEPRP | 0.0875
114 | RRIRFRPPRLPRPRPRPITSPRP | -0.178
115 | RRIRWRPPRLPRPRPRPARKPRP | -0.0849
116 | RRIRHRPPRLPRPRPRPVKYPRP | -0.0563
117 | RRIRMRPPRLPRPRPRPQVDPRP | -0.00893
118 | RRIRPRPPRLPRPRPRPQYQPRP | -0.263
119 | RRIRQRPPRLPRPRPRPILWPRP | -0.185
120 | RRIRNRPPRLPRPRPRPHERPRP | -0.13
121 | RRIRARPPRLPRPRPRPDSIPRP | -0.0582
122 | RRIRARPPRLPRPRPRPEMSPRP | 0.116
123 | RRIRVRPPRLPRPRPRPREQPRP | 0.0561
124 | RRIRRRPPRLPRPRPRPTGNPRP | 0.0381
125 | RRIRPRPPRLPRPRPRPVFCPRP | -0.113

Row | Sequence | shrunken log2 fold change
126 | RRIRVRPPRLPRPRPRPVHCPRP | -0.0781
127 | RRIRMRPPRLPRPRPRPATVPRP | 0.323
128 | RRIRCRPPRLPRPRPRPTMDPRP | -0.237
129 | RRIRFRPPRLPRPRPRPWMNPRP | -0.708
130 | RRIRSRPPRLPRPRPRPRYYPRP | -0.554
131 | RRIRKRPPRLPRPRPRPYKDPRP | -0.213
132 | RRIRLRPPRLPRPRPRPFMWPRP | -0.121
133 | RRIRGRPPRLPRPRPRPIKRPRP | 0.171
134 | RRIRPRPPRLPRPRPRPEVHPRP | 0.551
135 | RRIRFRPPRLPRPRPRPITTPRP | -0.198
136 | RRIRMRPPRLPRPRPRPDTWPRP | 0.34
137 | RRIRKRPPRLPRPRPRPIDPPRP | -0.0828
138 | RRIRVRPPRLPRPRPRPAQKPRP | 0.135
139 | RRIRARPPRLPRPRPRPMNMPRP | -0.0785
140 | RRIRKRPPRLPRPRPRPRHAPRP | 0.727
141 | RRIRARPPRLPRPRPRPFYMPRP | -0.45
142 | RRIRTRPPRLPRPRPRPFRWPRP | 0.24
143 | RRIRKRPPRLPRPRPRPGRKPRP | 0.0872
144 | RRIRLRPPRLPRPRPRPNMYPRP | -0.284
145 | RRIRERPPRLPRPRPRPKVVPRP | -0.0857
146 | RRIRDRPPRLPRPRPRPPNGPRP | 0.0163
147 | RRIRPRPPRLPRPRPRPVTWPRP | -0.0661
148 | RRIRARPPRLPRPRPRPRVIPRP | -0.0156
149 | RRIRERPPRLPRPRPRPDVMPRP | 0.0164
150 | RRIRIRPPRLPRPRPRPKWWPRP | 0.188
